{"source": "paper doi:10.1101/2022.07.21.500812", "key": {"[1]": {"molecular_target": "hGPC3^core(R355A/R358A) (human) (UniProt P51654)", "sequence (P51654 32-483 R355A/R358A)": "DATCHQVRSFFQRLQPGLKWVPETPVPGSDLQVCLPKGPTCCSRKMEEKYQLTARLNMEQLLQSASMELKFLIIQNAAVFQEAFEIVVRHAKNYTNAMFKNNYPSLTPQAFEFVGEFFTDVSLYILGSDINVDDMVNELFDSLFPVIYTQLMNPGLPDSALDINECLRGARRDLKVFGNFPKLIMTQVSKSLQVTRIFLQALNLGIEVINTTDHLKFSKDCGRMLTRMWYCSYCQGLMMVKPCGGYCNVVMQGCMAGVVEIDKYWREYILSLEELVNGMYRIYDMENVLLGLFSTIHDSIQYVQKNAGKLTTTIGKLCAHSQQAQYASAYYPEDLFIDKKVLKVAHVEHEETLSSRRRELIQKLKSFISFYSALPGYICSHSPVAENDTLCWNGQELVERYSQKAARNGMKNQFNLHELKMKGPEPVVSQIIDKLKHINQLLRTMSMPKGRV", "assay": "native MS"}, "[2]": {"molecular_target": "rattus norvegicus Unc5D residues 32-307 (rUnc5D^IgIgTSP) (rattus norvegicus) (UniProt F1LW30)", "assay": "crystal structure"}}}
{"substance": "rattus norvegicus Unc5D residues 32-307 (rUnc5D^IgIgTSP) (from UniProt F1LW30 32-307) (domain or fragment)", "values": [{"measurement": "stoichiometry N (Unc5D per GPC3 (1:1))", "setting": "[1]", "result": 1}, {"measurement": "stoichiometry N (Unc5D per GPC3 (2:2))", "setting": "[1]", "result": 1}, {"measurement": "stoichiometry N (Unc5D per GPC3 (4:4))", "setting": "[1]", "result": 1}, {"measurement": "stoichiometry N", "setting": "[2]", "result": 4}]}
